For one substance, Kd results are on record in publication PMC3576881.

This experiment deals with TβR-II/TGF-β3 binary complex (UniProt P37173). Briefly: SPR. For orientation: Surface plasmon resonance follows binding to a sensor surface in real time, without labels.

In turn, TβR-I 7–91 (domain or fragment) yielded a Kd of 310 nM.

What is called Kd is the concentration at which binding is half-saturated. High values mean weaker binding, low ones tighter binding.
